Data as given in patent publication US20020164762A1 (BASF AKTIENGESELLSCHAFT, published 2002).

T1: N-His-tagged p20 subunit of human ICE (human, UniProt P29466 120-297)
T1 construct: Subunit released from N-His p30 by autoprocessing
T1 sequence: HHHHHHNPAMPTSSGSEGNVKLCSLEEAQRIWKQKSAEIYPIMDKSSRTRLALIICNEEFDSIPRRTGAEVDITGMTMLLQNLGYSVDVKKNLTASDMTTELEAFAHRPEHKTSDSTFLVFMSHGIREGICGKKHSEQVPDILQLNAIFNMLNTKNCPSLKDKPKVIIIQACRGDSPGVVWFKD


Target: T1, N-His-tagged p20 subunit of human ICE
Experiment: co-expression as N-His p30 in E. coli, nickel chelating column purification
Source text: ICE (WT or modified) with an N-terminal polyhistidine tag was expressed in E. coli and purified using methodology described in Kamens et al. (1995) J. Biol. Chem., 270:15250-15256. Briefly, a DNA fragment encoding amino acid residues 120 to 404 of wild-type or D381E-modified ICE (p30) was cloned into an expression vector such that the p30-encoding fragment was fused in-frame at its N-terminus to DNA encoding six histidine residues. Following expression, the p30 fragment is correctly processed to p20 and p10 subunits, which associate to form mature, active N-His-tagged ICE proteins. The N-His ICE fusion proteins then were purified on a nickel chelating column (Porath, J. (1992) Protein Expression and Purification 2:263-281).

binding result	Binder
binds	wild-type p10 subunit of human ICE (other, Subunit released from WT N-His p30 by autoprocessing; also called ICE 317-404) AIKKAHIEKDFIAFCSSTPDNVSWRHPTMGSVFIGRLIEHMQEYACSCDVEEIFRKVRFSFEQPDGRAQMPTTERVTLTRCFYLFPGH
binds	D381E-modified p10 subunit of human ICE (other, Subunit released from D381E N-His p30 by autoprocessing; also called p10 D381E; ICE 317-404 D381E) AIKKAHIEKDFIAFCSSTPDNVSWRHPTMGSVFIGRLIEHMQEYACSCDVEEIFRKVRFSFEQPEGRAQMPTTERVTLTRCFYLFPGH
